Tests used:
[1] = molecular target: pcna-6 (DD41,42AA) mutant PCNA (yeast) (UniProt P15873)
[2] = molecular target: wild-type proliferating cell nuclear antigen (PCNA) (yeast) (UniProt P15873)
[3] = molecular target: wild-type proliferating cell nuclear antigen (PCNA) (yeast) (UniProt P15873); remark: listed apart in the source
[4] = molecular target: wild-type proliferating cell nuclear antigen (PCNA) (yeast) (UniProt P15873); remark: listed apart in the source
[5] = molecular target: pcna-6 (DD41,42AA) mutant PCNA (yeast) (UniProt P15873); remark: listed apart in the source
[6] = molecular target: wild-type proliferating cell nuclear antigen (PCNA) (yeast) (UniProt P15873); remark: listed apart in the source

Sequence of wild-type proliferating cell nuclear antigen (PCNA) (yeast) (P15873 whole entry): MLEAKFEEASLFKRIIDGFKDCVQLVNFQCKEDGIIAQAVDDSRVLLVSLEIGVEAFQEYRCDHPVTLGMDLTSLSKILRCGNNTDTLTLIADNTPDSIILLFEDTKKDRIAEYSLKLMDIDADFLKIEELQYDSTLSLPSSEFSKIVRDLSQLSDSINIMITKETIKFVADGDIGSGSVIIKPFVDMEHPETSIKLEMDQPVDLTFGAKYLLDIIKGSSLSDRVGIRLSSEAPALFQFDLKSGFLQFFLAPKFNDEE
Sequence of pcna-6 (DD41,42AA) mutant PCNA (yeast) (P15873 other isoform, or with tags, fused parts or gaps mutant): as the sequence (P15873 whole entry) above, with D41A, D42A counted along it

single-nucleotide extension rate (k fast), quench flow, 76/29 template/primer, 12°C [1] | single-nucleotide extension rate (k fast), quench flow, 76/29 template/primer, 12°C [2] | nucleotide incorporation rate (rate of primer disappearance, single exponential fit), quench flow, 75/29 template/primer, 300 nM mini-Pol δ-DV, 150 nM PCNA, 75 nM RFC, AMP-CPP, 100 mM NaCl, 30°C [3] | replication of the T20 template by the fastest moving complexes, quench flow, 100 mM NaCl (nucleotides per second) [4] | peak of the normalized product distribution (nucleotides incorporated) at 10 and 50 ms, single processive cycle with heparin trap [5] | peak of the normalized product distribution (nucleotides incorporated) at 10 and 50 ms, single processive cycle with heparin trap [6] | Substance
55 s⁻¹ | 183 s⁻¹ |  |  |  |  | DNA polymerase δ (Pol δ-DV), full-length exonuclease-deficient (D520V) heterotrimer (from UniProt P15436 1-1097; P46957 1-487; P47110 1-350) (complex)
 |  | > 350 s⁻¹ | 500 | 7 nucleotides | 16 nucleotides | mini-Pol δ-DV (variant DNA polymerase δ heterotrimer, exonuclease-deficient D520V) (from UniProt P15436 82-1097; P46957 1-487; P47110 1-350) (complex)

Source: paper PMC6393303
